Experimental data taken from patent US20220098307A1 (WUHAN YZY BIOPHARMA, published 2022).
Positions count from the first letter of the chain named. Names may count otherwise.

B1: M1IC-WT-1 (bispecific antibody, human IgG1, kappa)
chain: not shown
heavy: not shown
light: DVVMTQTPLSLPVSLGDQASISCRSSQSLVHSNGNTYLRWYLQKPGQSPKVLIYKVSNRFSGVPDRFSGSGSGTDFTLKISRVEAEDLGVYFCSQSTHVPWTFGGGTKLEIKRTVAAPSVFIFPPSDEQLKSGTASVVCLLNNFYPREAKVQWKVDNALQSGNSQESVTEQDSKDSTYSLSSTLTLSKADYEKHKVYACEVTHQGLSSPVTKSFNRGEC
notes: structure 1 isotype control; CH2 WT
B2: M1IC-G2-1 (bispecific antibody, human IgG1, kappa)
chain: QVQLVESGGGVVQPGRSLRLSCAASGFTFSTYAMNWVRQAPGKGLEWVARIRSKYNNYATYYADSVKDRFTISRDDSKNTLYLQMNSLRAEDTAVYYCARHGNFGNSYVSWFAYWGQGTLVTVSSGGGGSGGGGSGGGGSQTVVTQEPSLTVSPGGTVTLTCRSSTGAVTTSNYANWVQQKPGQAPRGLIGGTNKRAPGVPARFSGSLLGGKAALTLSGVQPEDEAEYYCALWYSNLWVFGGGTKVEIKGGGGSDKTHTCPPCPAPPVAGPSVFLFPPKPKDTLMISRTPEVTCVVVDVSHEDPEVQFNWYVDGVEVHNAKTKPREEQFNSTFRVVSVLTVVHQDWLNGKEYKCKVSNKGLPAPIEKTISKTKGQPREPQVCTLPPSRDELTKNQVSLSCAVKGFYPSDIAVEWESNGQPENNYKTTPPVLDSDGSFFLVSKLTVDKSRWQQGNVFSCSVMHEALHNHYTQKSLSLSPGK
heavy: EVKLDETGGGLVQPGRPMKLSCVASGFTFSDYWMNWVRQSPEKGLEWVAQIRNKPYNYETYYSDSVKGRFTISRDDSKSSVYLQMNNLRVEDMGIYYCTGSYYGMDYWGQGTSVTVSSASTKGPSVFPLAPSSKSTSGGTAALGCLVKDYFPEPVTVSWNSGALTSGVHTFPAVLQSSGLYSLSSVVTVPSSSLGTQTYICNVNHKPSNTKVDKKVEPKSCDKTHTCPPCPAPPVAGPSVFLFPPKPKDTLMISRTPEVTCVVVDVSHEDPEVQFNWYVDGVEVHNAKTKPREEQFNSTFRVVSVLTVVHQDWLNGKEYKCKVSNKGLPAPIEKTISKTKGQPREPQVYTLPPCRDELTKNQVSLWCLVKGFYPSDIAVEWESNGQPENNYKTTPPVLDSDGSFFLYSKLTVDKSRWQQGNVFSCSVMHEALHNHYTQKSLSLSPGK
light: B1 light
notes: structure 1 isotype control; CH2 G2CH2
B3: M1IC-AG2-1 (bispecific antibody, human IgG1, kappa)
chain: B2 chain with C263A
heavy: B2 heavy with C230A
light: B1 light
notes: structure 1 isotype control; CH2 AG2CH2
B4: M1IC-NQ (bispecific antibody, human IgG1, kappa, N297Q)
chain: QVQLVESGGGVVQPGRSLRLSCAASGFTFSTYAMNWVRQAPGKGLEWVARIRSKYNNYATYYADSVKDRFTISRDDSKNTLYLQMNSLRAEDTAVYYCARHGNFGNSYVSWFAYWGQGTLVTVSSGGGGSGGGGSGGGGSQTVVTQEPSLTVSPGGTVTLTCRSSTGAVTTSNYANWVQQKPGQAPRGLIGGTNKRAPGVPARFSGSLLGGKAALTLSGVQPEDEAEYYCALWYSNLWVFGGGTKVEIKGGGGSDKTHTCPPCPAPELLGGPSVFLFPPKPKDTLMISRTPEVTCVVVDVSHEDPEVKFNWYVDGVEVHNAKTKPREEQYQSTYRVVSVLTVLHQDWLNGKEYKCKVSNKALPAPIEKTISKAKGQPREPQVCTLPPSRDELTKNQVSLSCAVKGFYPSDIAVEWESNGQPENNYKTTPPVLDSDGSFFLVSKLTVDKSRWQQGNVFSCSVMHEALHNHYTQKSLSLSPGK
heavy: EVKLDETGGGLVQPGRPMKLSCVASGFTFSDYWMNWVRQSPEKGLEWVAQIRNKPYNYETYYSDSVKGRFTISRDDSKSSVYLQMNNLRVEDMGIYYCTGSYYGMDYWGQGTSVTVSSASTKGPSVFPLAPSSKSTSGGTAALGCLVKDYFPEPVTVSWNSGALTSGVHTFPAVLQSSGLYSLSSVVTVPSSSLGTQTYICNVNHKPSNTKVDKKVEPKSCDKTHTCPPCPAPELLGGPSVFLFPPKPKDTLMISRTPEVTCVVVDVSHEDPEVKFNWYVDGVEVHNAKTKPREEQYQSTYRVVSVLTVLHQDWLNGKEYKCKVSNKALPAPIEKTISKAKGQPREPQVYTLPPCRDELTKNQVSLWCLVKGFYPSDIAVEWESNGQPENNYKTTPPVLDSDGSFFLYSKLTVDKSRWQQGNVFSCSVMHEALHNHYTQKSLSLSPGK
light: B1 light
notes: structure 1 isotype control; CH2 N297Q
B5: M1IC-FES-1 (bispecific antibody, human IgG1, kappa)
chain: QVQLVESGGGVVQPGRSLRLSCAASGFTFSTYAMNWVRQAPGKGLEWVARIRSKYNNYATYYADSVKDRFTISRDDSKNTLYLQMNSLRAEDTAVYYCARHGNFGNSYVSWFAYWGQGTLVTVSSGGGGSGGGGSGGGGSQTVVTQEPSLTVSPGGTVTLTCRSSTGAVTTSNYANWVQQKPGQAPRGLIGGTNKRAPGVPARFSGSLLGGKAALTLSGVQPEDEAEYYCALWYSNLWVFGGGTKVEIKGGGGSDKTHTCPPCPAPEFEGGPSVFLFPPKPKDTLMISRTPEVTCVVVDVSHEDPEVKFNWYVDGVEVHNAKTKPREEQYNSTYRVVSVLTVLHQDWLNGKEYKCKVSNKALPASIEKTISKAKGQPREPQVCTLPPSRDELTKNQVSLSCAVKGFYPSDIAVEWESNGQPENNYKTTPPVLDSDGSFFLVSKLTVDKSRWQQGNVFSCSVMHEALHNHYTQKSLSLSPGK
heavy: B4 heavy with L235F, L236E, Q298N, P332S
light: B1 light
notes: structure 1 isotype control; CH2 FES; also called MlIC-FES-1
B6: M1IC-AAG-1 (bispecific antibody, human IgG1, kappa, L234A L235A)
chain: B5 chain with F268A, E269A, P363G, S365P
heavy: not shown
light: B1 light
notes: structure 1 isotype control; CH2 AAG
B7: CD38-M1-G2 (bispecific antibody, human IgG1, kappa)
chain: QVQLVESGGGVVQPGRSLRLSCAASGFTFSTYAMNWVRQAPGKGLEWVARIRSKYNNYATYYADSVKDRFTISRDDSKNTLYLQMNSLRAEDTAVYYCARHGNFGNSYVSWFAYWGQGTLVTVSSGGGGSGGGGSGGGGSQTVVTQEPSLTVSPGGTVTLTCRSSTGAVTTSNYANWVQQKPGQAPRGLIGGTNKRAPGVPARFSGSLLGGKAALTLSGVQPEDEAEYYCALWYSNLWVFGGGTKVEIKGRGRGSDKTHTCPPCPAPPVAGPSVFLFPPKPKDTLMISRTPEVTCVVVDVSHEDPEVQFNWYVDGVEVHNAKTKPREEQFNSTFRVVSVLTVVHQDWLNGKEYKCKVSNKGLPAPIEKTISKTKGQPREPQVCTLPPSRDELTKNQVSLSCAVKGFYPSDIAVEWESNGQPENNYKTTPPVLDSDGSFFLVSKLTVDKSRWQQGNVFSCSVMHEALHNHYTQKSLSLSPGK
heavy: EVQLLESGGGLVQPGGSLRLSCAVSGFTFNSFAMSWVRQAPGKGLEWVSAISGSGGGTYYADSVKGRFTISRDNSKNTLYLQMNSLRAEDTAVYFCAKDKILWFGEPVFDYWGQGTLVTVSSASTKGPSVFPLAPSSKSTSGGTAALGCLVKDYFPEPVTVSWNSGALTSGVHTFPAVLQSSGLYSLSSVVTVPSSSLGTQTYICNVNHKPSNTKVDKKVEPKSCDKTHTCPPCPAPPVAGPSVFLFPPKPKDTLMISRTPEVTCVVVDVSHEDPEVQFNWYVDGVEVHNAKTKPREEQFNSTFRVVSVLTVVHQDWLNGKEYKCKVSNKGLPAPIEKTISKTKGQPREPQVYTLPPCRDELTKNQVSLWCLVKGFYPSDIAVEWESNGQPENNYKTTPPVLDSDGSFFLYSKLTVDKSRWQQGNVFSCSVMHEALHNHYTQKSLSLSPGK
light: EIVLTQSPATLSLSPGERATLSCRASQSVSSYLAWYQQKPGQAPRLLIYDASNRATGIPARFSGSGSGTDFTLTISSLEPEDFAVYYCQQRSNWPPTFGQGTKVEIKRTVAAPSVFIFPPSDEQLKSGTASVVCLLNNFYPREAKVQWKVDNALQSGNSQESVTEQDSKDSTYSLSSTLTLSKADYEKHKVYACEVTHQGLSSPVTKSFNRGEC
notes: structure 1; CD38 x CD3; CH2 G2CH2
B8: CD38-M1-G2-1 (bispecific antibody)
chain: not shown
heavy: B7 heavy
light: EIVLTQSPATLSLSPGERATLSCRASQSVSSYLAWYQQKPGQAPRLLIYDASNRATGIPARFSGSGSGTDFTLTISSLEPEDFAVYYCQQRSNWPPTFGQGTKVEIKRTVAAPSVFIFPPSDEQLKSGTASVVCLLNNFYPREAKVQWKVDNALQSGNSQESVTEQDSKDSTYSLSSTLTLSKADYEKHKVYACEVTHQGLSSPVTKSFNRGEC
notes: structure 1; CD38 x CD3 (I2C); CH2 G2CH2
B9: CD38-M1-SG2-3 (bispecific antibody)
chain: not shown
heavy: B7 heavy with C234S
light: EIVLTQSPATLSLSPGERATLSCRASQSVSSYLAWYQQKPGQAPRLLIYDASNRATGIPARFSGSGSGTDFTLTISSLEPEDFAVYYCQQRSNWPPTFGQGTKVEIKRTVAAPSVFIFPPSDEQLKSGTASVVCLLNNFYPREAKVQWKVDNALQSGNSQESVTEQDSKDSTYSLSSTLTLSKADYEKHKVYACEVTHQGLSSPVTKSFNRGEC
notes: structure 1; CD38 x CD3 (I2C); CH2 SG2CH2
B10: CD38-M1-SG2 (bispecific antibody, human IgG1, kappa)
chain: B7 chain with C264S
heavy: B7 heavy with C234S
light: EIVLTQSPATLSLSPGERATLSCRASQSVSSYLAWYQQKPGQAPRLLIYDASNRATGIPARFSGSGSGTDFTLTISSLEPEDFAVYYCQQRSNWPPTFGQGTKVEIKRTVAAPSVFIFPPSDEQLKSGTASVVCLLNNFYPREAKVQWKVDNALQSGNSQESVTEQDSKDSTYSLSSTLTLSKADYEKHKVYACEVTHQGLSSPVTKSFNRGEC
notes: structure 1; CD38 x CD3; CH2 SG2CH2
B11: CD38-M1-DG2D (bispecific antibody)
chain: not shown
heavy: B7 heavy with D269A, D274A
light: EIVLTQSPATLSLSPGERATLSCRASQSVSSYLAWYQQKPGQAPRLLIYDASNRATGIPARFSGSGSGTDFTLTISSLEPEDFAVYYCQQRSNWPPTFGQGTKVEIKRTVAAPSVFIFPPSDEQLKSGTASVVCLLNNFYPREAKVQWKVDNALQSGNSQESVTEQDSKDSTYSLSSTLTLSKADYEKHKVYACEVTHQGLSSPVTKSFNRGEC
notes: structure 1; CD38 x CD3 (I2C); CH2 DG2DCH2
B12: CD38-M1-GG2 (bispecific antibody)
chain: not shown
heavy: B7 heavy with C234G
light: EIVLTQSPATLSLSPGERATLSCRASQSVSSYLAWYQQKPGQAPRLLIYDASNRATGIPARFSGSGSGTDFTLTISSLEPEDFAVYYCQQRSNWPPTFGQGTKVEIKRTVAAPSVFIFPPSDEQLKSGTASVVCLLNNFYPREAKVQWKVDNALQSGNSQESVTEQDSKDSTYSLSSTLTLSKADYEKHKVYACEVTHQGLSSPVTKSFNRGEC
notes: structure 1; CD38 x CD3 (I2C); CH2 GG2CH2
B13: CD38-M1-DG2 (bispecific antibody)
chain: not shown
heavy: B7 heavy with D269A
light: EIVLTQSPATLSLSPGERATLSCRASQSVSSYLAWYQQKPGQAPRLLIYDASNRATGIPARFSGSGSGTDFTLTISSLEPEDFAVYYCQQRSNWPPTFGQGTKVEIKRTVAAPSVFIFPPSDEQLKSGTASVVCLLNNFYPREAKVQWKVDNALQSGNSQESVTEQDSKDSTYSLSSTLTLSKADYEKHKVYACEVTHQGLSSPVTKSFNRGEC
notes: structure 1; CD38 x CD3 (I2C); CH2 DG2CH2
B14: CD38-M1-AG2 (bispecific antibody)
chain: not shown
heavy: B7 heavy with C234A
light: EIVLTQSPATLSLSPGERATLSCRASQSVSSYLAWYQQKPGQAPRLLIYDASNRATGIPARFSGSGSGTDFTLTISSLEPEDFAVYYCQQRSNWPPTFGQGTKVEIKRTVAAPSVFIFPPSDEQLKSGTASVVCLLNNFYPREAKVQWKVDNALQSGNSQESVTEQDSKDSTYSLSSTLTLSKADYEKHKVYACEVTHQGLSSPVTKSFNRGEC
notes: structure 1; CD38 x CD3 (I2C); CH2 AG2CH2
B15: CD38-M1-PG2 (bispecific antibody)
chain: not shown
heavy: B7 heavy with C234P
light: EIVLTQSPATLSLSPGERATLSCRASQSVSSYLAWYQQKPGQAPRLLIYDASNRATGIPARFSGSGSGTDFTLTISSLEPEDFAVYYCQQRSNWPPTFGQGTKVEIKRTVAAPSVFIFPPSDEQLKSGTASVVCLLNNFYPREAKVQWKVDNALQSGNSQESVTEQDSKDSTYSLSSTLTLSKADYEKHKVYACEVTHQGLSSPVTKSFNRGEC
notes: structure 1; CD38 x CD3 (I2C); CH2 PG2CH2
B16: CD38-M1-G2D (bispecific antibody)
chain: not shown
heavy: B7 heavy with D274A
light: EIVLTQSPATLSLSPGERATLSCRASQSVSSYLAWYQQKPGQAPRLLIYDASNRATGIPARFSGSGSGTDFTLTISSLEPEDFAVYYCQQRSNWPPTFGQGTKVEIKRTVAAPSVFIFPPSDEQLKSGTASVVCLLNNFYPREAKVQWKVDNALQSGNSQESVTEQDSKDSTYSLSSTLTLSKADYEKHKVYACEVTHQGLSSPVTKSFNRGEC
notes: structure 1; CD38 x CD3 (I2C); CH2 G2DCH2
B17: CD38-M1-FES-1 (bispecific antibody)
chain: not shown
heavy: EVQLLESGGGLVQPGGSLRLSCAVSGFTFNSFAMSWVRQAPGKGLEWVSAISGSGGGTYYADSVKGRFTISRDNSKNTLYLQMNSLRAEDTAVYFCAKDKILWFGEPVFDYWGQGTLVTVSSASTKGPSVFPLAPSSKSTSGGTAALGCLVKDYFPEPVTVSWNSGALTSGVHTFPAVLQSSGLYSLSSVVTVPSSSLGTQTYICNVNHKPSNTKVDKKVEPKSCDKTHTCPPCPAPEFEGGPSVFLFPPKPKDTLMISRTPEVTCVVVDVSHEDPEVKFNWYVDGVEVHNAKTKPREEQYNSTYRVVSVLTVLHQDWLNGKEYKCKVSNKALPASIEKTISKAKGQPREPQVYTLPPCRDELTKNQVSLWCLVKGFYPSDIAVEWESNGQPENNYKTTPPVLDSDGSFFLYSKLTVDKSRWQQGNVFSCSVMHEALHNHYTQKSLSLSPGK
light: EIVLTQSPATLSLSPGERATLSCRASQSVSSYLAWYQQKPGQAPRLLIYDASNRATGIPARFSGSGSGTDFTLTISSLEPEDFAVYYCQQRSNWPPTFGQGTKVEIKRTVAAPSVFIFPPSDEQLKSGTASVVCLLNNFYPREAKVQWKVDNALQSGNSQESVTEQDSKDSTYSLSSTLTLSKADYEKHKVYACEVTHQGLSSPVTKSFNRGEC
notes: structure 1; CD38 x CD3 (I2C); CH2 FES

Biological target: T1, Human CD3ε (human, UniProt P07766 23-126)
T1 construct: CD3 on T cells isolated from human whole blood
Experiment: flow cytometry, human T cells
Source text: 1) Cell preparation: T cells isolated from CD3-positive human whole blood were used for a CD3 end affinity detection of multifunctional antibody molecule; positive tumor cells of corresponding antigen were used for detecting affinity of tumor antigen; for example, CD38-positive MM. 1S cells (purchased from the Cell Resource Center of Shanghai Institutes for Biological Sciences, Chinese Academy of Sciences) or RPMI 8226 cells (purchased from the Cell Resource Center of Shanghai Institutes for Biological Sciences, Chinese Academy of Sciences) were used for CD38 antigen detection, and PD-L1 positive H358 cells (purchased from the Cell Resource Center of Shanghai Institutes for Biological Sciences, Chinese Academy of Sciences) were used for PD-L1 antigen detection, and so on. The cells were resuspended with 1% FBS-PBS, adjusted to a density of 4×10⁶/ml, and 50 μl of cells were taken from each well, and then plated at 2×10⁵ per well. Cell plating was operated on ice
2) Addition of the antibody: according to the experimental design, the antibody was diluted gradually, and dilution of antibody was operated on ice. For example, the initial concentration of antibody for dilution was 3000 nM, and the antibody was diluted by 3 times with 11 concentration gradients. The diluted antibody was added to a cell well at 50 μl per well, mixed well, and shaked and incubated at 4° C. 1100 rpm/min for 2 h; after washing, the cells were resuspend in 1% FBS-PBS, and a diluted secondary antibody PE anti-human IgG FC (Biolegend, 409304) was added with a final concentration of 8 ug/ml and a volume of 50 μl/well. At the same time, a well only added with cells and secondary antibody was set as a control, the components were mixed well, and incubated under shaking at 1100 rpm/min at 4° C. for 1 h;
5) Data analysis: the data was analyzed by a flow analysis software FlowJo 7.6 thereby obtaining an average fluorescence intensity of the specific antibody concentration, plotted by a Graphpad Prism 5 with the antibody concentration (nM) as an abscissa and the average fluorescence intensity as an ordinate; the EC50 value was calculated by the method of One site—Specific binding, and the EC50 value indicated the cell affinity of the antibody to the corresponding target antigen.

Row | Binder | EC50 [nM]
1 | B1 | 153
2 | B2 | 127
3 | B3 | 163
4 | B4 | 194
5 | B5 | 170
6 | B6 | 152

Biological target: T2, Monkey CD3 (monkey)
T2 construct: whole, on cells; also called CD3 of monkey CD3 positive T cells
Experiment: flow cytometry, monkey T cells

Row | Binder | EC50 [nM]
7 | B1 | 174
8 | B2 | 165
9 | B3 | 197
10 | B4 | 378
11 | B5 | 295
12 | B6 | 205
13 | B7 | 142
14 | B8 | 12.6
15 | B9 | 7.59
16 | B10 | 159
17 | B11 | 7.05
18 | B12 | 10.4
19 | B13 | 11
20 | B14 | 10.2
21 | B15 | 11.5
22 | B16 | 10.1
23 | B17 | 9.18
